From patent US20210371530A1 (Merck Sharp & Dohme, published 2021)
Positions count from the first letter of the chain named. Names may count otherwise.

B1: Humanized 08A IgG4 S61N (lot 98AIO) (antibody)
heavy: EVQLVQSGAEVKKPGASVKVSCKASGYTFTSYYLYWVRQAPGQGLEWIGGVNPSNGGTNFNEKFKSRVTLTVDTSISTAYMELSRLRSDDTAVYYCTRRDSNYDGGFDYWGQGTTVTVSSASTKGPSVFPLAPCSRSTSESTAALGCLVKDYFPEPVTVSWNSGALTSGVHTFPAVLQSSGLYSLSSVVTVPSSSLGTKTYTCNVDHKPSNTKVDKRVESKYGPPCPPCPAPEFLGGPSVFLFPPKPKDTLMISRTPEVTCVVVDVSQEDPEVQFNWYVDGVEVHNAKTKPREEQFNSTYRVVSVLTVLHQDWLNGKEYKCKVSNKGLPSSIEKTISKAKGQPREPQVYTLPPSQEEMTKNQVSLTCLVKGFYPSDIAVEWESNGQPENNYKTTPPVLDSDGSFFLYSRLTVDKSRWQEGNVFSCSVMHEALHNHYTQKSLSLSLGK
light: DIVMTQTPLSLSVTPGQPASISCRASKSVSTSGFSYLHWYLQKPGQPPQLLIFLASNLESGVPDRFSGSGSGTDFTLKISRVEAEDVGVYYCQHSWELPLTFGQGTKLEIKRTVAAPSVFIFPPSDEQLKSGTASVVCLLNNFYPREAKVQWKVDNALQSGNSQESVTEQDSKDSTYSLSSTLTLSKADYEKHKVYACEVTHQGLSSPVTKSFNRGEC
notes: IgG4 S228P / kappa; also called 08A/HuPD1A-11 S61N S228P corrected IgG4 / Kappa
B2: Humanized 08A IgG4 (antibody, V domains shown)
VH: EVQLVQSGAEVKKPGASVKVSCKASGYTFTSYYLYWVRQAPGQGLEWIGGVNPSNGGTNFSEKFKSRVTLTVDTSISTAYMELSRLRSDDTAVYYCTRRDSNYDGGFDYWGQGTTVTVSS
VL: DIVMTQTPLSLSVTPGQPASISCRASKSVSTSGFSYLHWYLQKPGQPPQLLIFLASNLESGVPDRFSGSGSGTDFTLKISRVEAEDVGVYYCQHSWELPLTFGQGTKLEIKR
notes: IgG4 S228P / kappa, no CDRH2 corrections; also called 73AGG; 08A/HuPD1A-11 S228P IgG4 / Kappa
B3: Humanized 08A IgG4 Fab 098 G56A (antibody, V domains shown)
VH: B2 VH with G56A, D100L, N102H
VL: B2 VL
notes: IgG4 S228P / kappa; also called 90AVZ
B4: Humanized 08A IgG4 S61N N55E (antibody, V domains shown)
VH: B2 VH with N55E, S61N
VL: B2 VL
notes: IgG4 S228P / kappa; also called 50AQK; 08A/HuPD1A-11 N55E S228P IgG4 / Kappa
B5: Humanized 08A IgG4 G56A (antibody, V domains shown)
VH: B2 VH with G56A
VL: B2 VL
notes: IgG4 S228P / kappa; also called 89AVZ; 08A/HuPD1A-11 G56A IgG4 S228P / Kappa
B6: Humanized 08A IgG4 S61N (lot 67AGG) (antibody)
heavy: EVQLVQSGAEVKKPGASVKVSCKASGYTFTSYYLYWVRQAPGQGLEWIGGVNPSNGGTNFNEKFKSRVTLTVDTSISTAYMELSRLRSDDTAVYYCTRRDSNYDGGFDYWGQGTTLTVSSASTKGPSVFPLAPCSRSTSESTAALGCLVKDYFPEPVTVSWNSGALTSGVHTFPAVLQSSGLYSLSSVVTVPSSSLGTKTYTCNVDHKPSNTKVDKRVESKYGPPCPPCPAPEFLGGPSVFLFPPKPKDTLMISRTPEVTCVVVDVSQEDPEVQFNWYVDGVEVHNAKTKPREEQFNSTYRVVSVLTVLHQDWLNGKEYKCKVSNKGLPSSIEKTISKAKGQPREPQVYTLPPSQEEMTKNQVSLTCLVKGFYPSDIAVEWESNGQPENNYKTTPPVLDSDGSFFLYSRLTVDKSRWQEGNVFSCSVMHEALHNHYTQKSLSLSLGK
light: B1 light
notes: IgG4 S228P / kappa; differs from 98AIO by an HFR4 mutation; also called 08A/HuPD1A-11 S61N WT S228P IgG4 / Kappa, with HFR4 mutation
B7: Mouse 09A (antibody, mouse IgG1, kappa, V domains shown)
VH: QVQLQQPGAELVKPGTSVKLSCKASGYTFTNYYMYWVKQRPGQGLEWIGGINPSNGGTNFNEKFKNKATLTVDSSSSTTYMQLSSLTSEDSAVYYCTRRDYRFDMGFDYWGQGTTLTVSS
VL: DIVLTQSPASLAVSLGQRAAISCRASKGVSTSGYSYLHWYQQKPGQSPKLLIYLASYLESGVPARFSGSGSGTDFTLNIHPVEEEDAATYYCQHSRDLPLTFGTGTKLELKR
notes: Mouse IgG1/kappa; also called 03AFN; Mouse x [PD-1_H] mAb (clone 09A) IgG1 / Kappa
B8: Mouse 08A (antibody, mouse IgG1, kappa, V domains shown)
VH: QVQLQQPGAELVKPGASVKLSCKASGYTFTSYYLYWMKQRPGQGLEWIGGVNPSNGGTNFSEKFKSKATLTVDKSSSTAYMQLSSLTSEDSAVYYCTRRDSNYDGGFDYWGQGTTLTVSS
VL: B7 VL with A9T, A20T, G28S, Y34F, S47P, Y53F, Y57N, R96W, D97E, T104A
notes: Mouse IgG1/kappa; also called 09AFF; parental mouse 08A antibody
B9: Mouse 08A N59A (antibody, mouse IgG1, kappa, V domains shown)
VH: B8 VH with N59A
VL: B7 VL with A9T, A20T, G28S, Y34F, S47P, Y53F, Y57N, R96W, D97E, T104A
notes: also called 80AFH; Clone 1.08 N59A
B10: Mouse 08A N59Q (antibody, mouse IgG1, kappa, V domains shown)
VH: B8 VH with N59Q
VL: B7 VL with A9T, A20T, G28S, Y34F, S47P, Y53F, Y57N, R96W, D97E, T104A
notes: also called 38AFL; Clone 1.08 N59Q
B11: Mouse 08A N59E (antibody, mouse IgG1, kappa, V domains shown)
VH: B8 VH with N59E
VL: B7 VL with A9T, A20T, G28S, Y34F, S47P, Y53F, Y57N, R96W, D97E, T104A
notes: also called 39AFL; Clone 1.08 N59E

Target: T1, polyhistidine-tagged human PD-1 (hPD1-His, 98AFK) (human, UniProt Q15116 25-167, limits assumed)
T1 construct: Lot 98AFK; also called human PD1-His; Human PD-1-His; not shown: polyhistidine tag
Experiment: SPR capture format; reference Mouse 08A
Protocol: A surface plasmon resonance (SPR)-based assay utilizing capture mode was used to determine the binding kinetics and affinities of anti-PD-1 antibodies against polyhistidine-tagged human PD-1 (hPD1-His, 98AFK). Following manufacture instructions, a series S sensor chip CM5 (GE Healthcare, BR100530) was activated using an amine-coupling kit (GE Healthcare, BR100050). Either human capture kit (anti-human Fc, 25 μg/mL, GE Healthcare, BR100839) or mouse capture kit (anti-mouse Fc, 30 μg/mL, GE Healthcare, BR100838) antibody diluted in the supplied pH 5.0, 10 mM sodium acetate buffer was immobilized onto the activated surface for 7 minutes. After immobilization, surfaces were deactivated with 1M ethanolamine/HCl (pH 8.5) for 7 minutes. The final immoblization levels reached ˜8,000 resonance units (RU) for mouse capture or 12,000 RU for human capture in each of the four flow cells.
Binding kinetics were measured on a biacore T200 in HBS-EP+(0.01 M HEPES pH 7.4, 0.15 M NaCl, 3 mM EDTA, 0.05% v/v Surfactant P20) running buffer at 25° C. Antibodies were captured either on mouse or human Fc capture surfaces at 10 μL/min flow rate. Antibodies were captured on flow cells 2, 3 and 4. Flow cell 1 was used as a reference with no antibody captured. A 6-point, 2-fold serial dilutions of the analyte 98AFK (hPD1-His), starting at 20 nM, were prepared in the running buffer (HBS-EP+). Two buffer blanks were included for double referencing. Titration series were injected for 3 minutes at 50 μl/min followed by 600 seconds of dissociation. After each cycle, surfaces were regenerated with a 30 second injection of 3M MgCl2 at […] on the anti-human Fc chip or 180 seconds of 10 mM Glycine pH 1.7 at 10 μl/min on the anti-mouse Fc chip.
Sensorgram processing and data analysis were performed with Biacore T200 Evaluation Software Version 2.0.4 (GE Healthcare). […] Processed curves were globally fitted to a 1:1 binding model to determine the association rate constant, kₒₙ (M⁻¹s⁻¹, where “M” equals molar and “s” equals seconds) and the dissociation rate constant, koff (s⁻¹). These rate constants were used to calculate the equilibrium dissociation constant, KD (M)=koff/kₒₙ.

T1 sequence (Q15116 25-167 limits assumed): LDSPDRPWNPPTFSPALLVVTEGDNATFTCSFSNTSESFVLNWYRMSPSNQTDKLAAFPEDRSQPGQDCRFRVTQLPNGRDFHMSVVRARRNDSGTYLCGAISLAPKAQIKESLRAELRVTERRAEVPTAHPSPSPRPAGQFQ

| KD (REF) / KD [ratio] | Binder |
| --- | --- |
| 4.4 | B1 |
| 1.7 | B2 |
| 3 | B3 |
| 0.8 | B4 |
| 2.4 | B5 |
| 5.2 | B6 |
| 0.5 | B7 |
| 1 | B8 |
| 0.4 | B9 |
| 0.04 | B10 |
| 0.03 | B11 |

Target: T1, polyhistidine-tagged human PD-1 …
Experiment: SPR solution affinity; reference Humanized 08A IgG4 S61N (98AIO)
Protocol: The titration series were incubated for 16-24 hours to reach equilibrium at room temperature. The unbound sites were measured using a BIAcore chip immobilized with antigen in a competition mode where SPR signal detected corresponded to unbound antibody.
The titration series following >16 hr. incubation were injected over the sensor chip immobilized with hPD1-His (above). Free, unbound antibodies concentrations were measured as proportional to RU after 120 seconds (for 500 pM mAb series) or 400 seconds (for 100 pM mAb series) of injection at 10 μL/min. After each cycle, surfaces were regenerated with a 30 second injection of 1:1 mixture of 3M MgCl2 and pH 2.0 10 mM glycine at 30 μL/min
Data analyses were performed using KINEXA Pro Version 1.02 (Sapydyne) where RUs were normalized and plotted against concentrations.

| KD (REF) / KD [ratio] | Binder |
| --- | --- |
| 1 | B1 |
| 1.7 | B3 |
| 0.6 | B5 |
